Source: paper PMC12660843, “Using phage display for rational engineering of a higher-affinity humanized 3’ phosphohistidine-specific antibody” (Communications Chemistry, 2025)
*1 amine or outer side, *2 acyl side, *3 side chain or, on linkers, in order; H or OH if unused. Where no end group is shown, it is not given here. [ ]: non-standard residue; d: D form. The star is where a group is joined. 3‑pTza = 3-phosphotriazolyl alanine (also given as 3-phosphoryl-triazolylalanine); 3‑pHis = 3-phosphohistidine, O=C([C@H](Cc1cn(P(=O)(O)O)cn1)N[*:1])[*:2]; Biotin = O=C1N[C@H]2[C@H](CS[C@H]2CCCCC(=O)*)N1; Ahx = NCCCCCC(=O)O

Legend:
[1] = biological target: 3-pTza peptide (Biotin-AminocaproicAcid-A.G.A.G.3-pTza.A.G.A.G); experiment: BLI; biotinylated peptide captured on streptavidin biosensors at 20 nM; IgG in solution at 20-200 nM; Octet HTX; 1x HBS-T, 1% BSA
[2] = biological target: 3-pTza peptide (Biotin-AminocaproicAcid-A.G.A.G.3-pTza.A.G.A.G); experiment: BLI; Octet HTX; biotinylated peptides captured on streptavidin biosensors at 20 nM; IgG in solution, 20-200 nM; 1x HBS-T, 1% BSA
[3] = biological target: T1, 3-pHis form of ACLY (120 kDa) (Homo sapiens (HEK293T, endogenous), UniProt P53396, 3-phosphohistidine (site not stated)); experiment: immunoblot; HEK293T whole cell lysate, 30 µg, alkaline 12% SDS-PAGE and alkaline blotting at 4 °C; 0.5 µg/mL IgG as primary antibody, 1 h at room temperature; HRP secondary antibody; settings: one partner purified
T1 construct: ACLY (ATP-citrate lyase), 120 kDa band on the immunoblot; source: endogenous, HEK293T lysate
T1 sequence (P53396 whole entry): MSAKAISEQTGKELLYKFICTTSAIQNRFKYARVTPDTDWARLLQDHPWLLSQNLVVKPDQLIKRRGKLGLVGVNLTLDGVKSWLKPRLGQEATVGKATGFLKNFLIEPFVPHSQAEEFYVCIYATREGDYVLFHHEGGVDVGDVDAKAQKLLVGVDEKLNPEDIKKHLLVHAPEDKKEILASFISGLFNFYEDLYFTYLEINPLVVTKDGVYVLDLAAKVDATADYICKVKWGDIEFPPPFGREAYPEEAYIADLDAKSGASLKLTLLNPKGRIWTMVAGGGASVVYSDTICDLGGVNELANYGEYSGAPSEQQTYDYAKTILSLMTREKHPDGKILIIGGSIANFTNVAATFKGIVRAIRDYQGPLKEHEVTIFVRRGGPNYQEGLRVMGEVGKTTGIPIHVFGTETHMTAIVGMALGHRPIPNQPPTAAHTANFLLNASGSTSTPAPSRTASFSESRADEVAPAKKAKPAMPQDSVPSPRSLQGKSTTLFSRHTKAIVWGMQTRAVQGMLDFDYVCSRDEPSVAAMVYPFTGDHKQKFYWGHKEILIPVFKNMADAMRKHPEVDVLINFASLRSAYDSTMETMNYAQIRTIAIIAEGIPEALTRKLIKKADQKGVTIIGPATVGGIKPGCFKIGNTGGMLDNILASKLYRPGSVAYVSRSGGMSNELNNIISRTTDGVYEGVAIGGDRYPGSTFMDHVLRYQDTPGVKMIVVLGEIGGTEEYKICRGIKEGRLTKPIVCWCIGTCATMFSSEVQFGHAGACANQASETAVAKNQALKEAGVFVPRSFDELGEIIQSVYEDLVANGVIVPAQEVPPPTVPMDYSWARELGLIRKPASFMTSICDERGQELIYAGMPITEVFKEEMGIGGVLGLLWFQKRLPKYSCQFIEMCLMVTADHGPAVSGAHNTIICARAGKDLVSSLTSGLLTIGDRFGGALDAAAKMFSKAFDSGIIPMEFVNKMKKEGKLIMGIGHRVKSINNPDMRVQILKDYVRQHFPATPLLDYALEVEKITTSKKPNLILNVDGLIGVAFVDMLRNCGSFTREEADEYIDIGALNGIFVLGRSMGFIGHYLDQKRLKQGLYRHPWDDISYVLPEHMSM

[4] = biological target: T2, 3-pHis form of the a-subunit of SCS (30 kDa) (Homo sapiens (HEK293T, endogenous), UniProt P53597, 3-phosphohistidine (site not stated)); experiment: as above; settings: one partner purified
T2 construct: alpha subunit of SCS (succinyl-CoA synthetase), 30 kDa band on the immunoblot; source: endogenous, HEK293T lysate
T2 sequence (P53597 41-346): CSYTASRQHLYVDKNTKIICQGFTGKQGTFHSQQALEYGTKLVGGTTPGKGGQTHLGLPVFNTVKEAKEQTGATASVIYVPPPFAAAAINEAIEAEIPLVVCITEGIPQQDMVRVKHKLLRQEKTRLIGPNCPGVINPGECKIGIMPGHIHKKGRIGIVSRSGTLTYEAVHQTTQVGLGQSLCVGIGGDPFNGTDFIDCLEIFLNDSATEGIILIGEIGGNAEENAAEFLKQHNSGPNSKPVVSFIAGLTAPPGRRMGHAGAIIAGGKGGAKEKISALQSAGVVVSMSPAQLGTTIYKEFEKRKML

[5] = biological target: 3-pTza peptide (Biotin-AminocaproicAcid-A.G.A.G.3-pTza.A.G.A.G); experiment: BLI; Octet RED96e; biotinylated peptides captured on streptavidin biosensors at 20 nM; Fab in solution, 20-200 nM; 1x HBS-T, 1% BSA
[6] = biological target: T3, 3-pHis peptide (Biotin-AminocaproicAcid-A.G.A.G.H.A.G.A.G phosphorylated by phosphoramidate); experiment: as above
T3 construct: His-peptide, phosphorylated on His5; the phosphoramidate reaction gives a mixture of non-phosphorylated, 1-pHis, 3-pHis and di-pHis peptide; also called Biotinylated ACLYana-3-pHis; ACLYana-pHis; source: synthetic peptide, phosphorylated with potassium phosphoramidate; not shown: biotin, N-terminal, kept
T3 peptide: {Biotin-Ahx}-AGAG[3‑pHis]AGAG

[7] = biological target: T4, 3-pTza peptide (Biotin-AminocaproicAcid-A.G.A.G.3-pTza.A.G.A.G); experiment: BLI; biotinylated peptide captured on streptavidin biosensors at 20 nM; IgG in solution at 20-200 nM; Octet HTX; 1x HBS-T, 1% BSA; settings: both partners purified
T4 chain: {Biotin-Ahx}-AGAG[3‑pTza]AGAG

[8] = biological target: T3, 3-pHis peptide …; experiment: as above; settings: both partners purified

B1: hSC44.1 IgG (antibody, V domains shown)
VH: EVQLVESGGGLVQPGGSLRLSCTASGFSIDSYGFSWVRQAPGKGLEHIGYLTAGGRAFYASWAKSRSTITRNTNENTVTLKMNSLRAEDTAVYYCAKLGTGSPIAIWGQGTLVTVSS
VL: DIQMTQSPSSLSASVGDRVTITCRASQSVWRNKNVAWYQQKPGKAPKRLIYAIASLYSGVPSRFSGSGSGTDFTLTISSLQPEDFATYYCVGHYGSENDAYYAFGQGTKVEIK
Kd [1]: 0.588 nM
koff [1]: 8.32e-05 s⁻¹
kon [1]: 141000 M⁻¹ s⁻¹

B2: hSC44.13 IgG (antibody, V domains shown)
VH: EVQLVESGGGLVQPGGSLRLSCTASGFSIDSYGFSWVRQAPGKGLEHIGYLTAGGRAFYASWAKSRSTITRNTNENTVTLKMNSLRAEDTAVYYCAKLGTGSPVAIWG
VL: DIQMTQSPSSLSASVGDRVTITCRASQSVWRNKNVAWYQQKPGKAPKRLIYAIASLYSGVPSRFSGSGSGTDFTLTISSLQPEDFATYYCVGHYGSENDAYYAFGQGTKVEIK
Kd [1]: 0.405 nM
koff [1]: 7.37e-05 s⁻¹
kon [1]: 182000 M⁻¹ s⁻¹

B3: hSC44.22 IgG (antibody, V domains shown)
VH: EVQLVESGGGLVQPGGSLRLSCTASGFSIDSYGFSWVRQAPGKGLEHIGYLTAGGRAFYASWAKSRSTITRNTNENTVTLKMNSLRAEDTAVYYCAKLGTGTPVAIWG
VL: DIQMTQSPSSLSASVGDRVTITCRASQSVWRNKNVAWYQQKPGKAPKRLIYAIASLYSGVPSRFSGSGSGTDFTLTISSLQPEDFATYYCVGHYGSENDAYYAFGQGTKVEIK
Kd [1]: 0.495 nM
koff [1]: 4.49e-05 s⁻¹
kon [1]: 90600 M⁻¹ s⁻¹

B4: hSC44.28 IgG (antibody, V domains shown)
VH: EVQLVESGGGLVQPGGSLRLSCTASGFSIDSYGFSWVRQAPGKGLEHIGYLTAGGRAFYASWAKSRSTITRNTNENTVTLKMNSLRAEDTAVYYCAKLGTGSPLAIWG
VL: DIQMTQSPSSLSASVGDRVTITCRASQSVWRNKFVAWYQQKPGKAPKRLIYAIASLYSGVPSRFSGSGSGTDFTLTISSLQPEDFATYYCVGHYGSENDAYYAFGQGTKVEIK
Kd [1]: 1.21 nM
koff [1]: 3e-05 s⁻¹
kon [1]: 24900 M⁻¹ s⁻¹

B5: hSC44.31 IgG (antibody, V domains shown)
VH: EVQLVESGGGLVQPGGSLRLSCTASGFSIDSYGFSWVRQAPGKGLEHIGYLTAGGRAFYASWAKSRSTITRNTNENTVTLKMNSLRAEDTAVYYCAKLGTGTPFAIWGQGTLVTVSS
VL: DIQMTQSPSSLSASVGDRVTITCRASQSVWRNKYVAWYQQKPGKAPKRLIYAIASLYSGVPSRFSGSGSGTDFTLTISSLQPEDFATYYCVGHYGSENDAYYAFGQGTKVEIK
Kd [1]: 2.71 nM
koff [1]: 3.98e-05 s⁻¹
kon [1]: 14700 M⁻¹ s⁻¹

B6: hSC44.3 IgG (antibody, V domains shown)
VH: EVQLVESGGGLVQPGGSLRLSCTASGFSIDSYGFSWVRQAPGKGLEHIGYLTAGGRAFYASWAKSRSTITRNTNENTVTLKMNSLRAEDTAVYYCAKIGSGSPVAIWG
VL: DIQMTQSPSSLSASVGDRVTITCRASQSVWRNKNVAWYQQKPGKAPKRLIYAIASLYSGVPSRFSGSGSGTDFTLTISSLQPEDFATYYCVGHYGSENDAYYAFGQGTKVEIK
Kd [1]: 0.352 nM
koff [1]: 1.43e-05 s⁻¹
kon [1]: 40700 M⁻¹ s⁻¹

B7: hSC44.8 IgG (antibody, V domains shown)
VH: EVQLVESGGGLVQPGGSLRLSCTASGFSIDSYGFSWVRQAPGKGLEHIGYLTAGGRAFYASWAKSRSTITRNTNENTVTLKMNSLRAEDTAVYYCAKIGTGSRVAIWG
VL: DIQMTQSPSSLSASVGDRVTITCRASQSVWRNKNVAWYQQKPGKAPKRLIYAIASLYSGVPSRFSGSGSGTDFTLTISSLQPEDFATYYCVGHYGSENDAYYAFGQGTKVEIK
Kd [1]: 0.185 nM
koff [1]: 6.66e-05 s⁻¹
kon [1]: 359000 M⁻¹ s⁻¹

B8: hSC44.20 IgG (antibody, V domains shown)
VH: EVQLVESGGGLVQPGGSLRLSCTASGFSIDSYGFSWVRQAPGKGLEHIGYLTAGGRAFYASWAKSRSTITRNTNENTVTLKMNSLRAEDTAVYYCAKLGTGSRFAIWGQGTLVTVSS
VL: DIQMTQSPSSLSASVGDRVTITCRASQSVWRNKNVAWYQQKPGKAPKRLIYAIASLYSGVPSRFSGSGSGTDFTLTISSLQPEDFATYYCVGHYGSENDAYYAFGQGTKVEIK
notes: as the heavy chain of m2 with the stated CDR-H3 changes (Kabat numbering); as the light chain of m1; source: Expi293, transfected, purified (CaptoL, SEC); copies: 2 + 2
Kd [2]: < 0.001 nM
binding result [3]: binds
binding result [4]: binds

B9: hSC44.20 Fab (Fab, V domains shown)
VH: EVQLVESGGGLVQPGGSLRLSCTASGFSIDSYGFSWVRQAPGKGLEHIGYLTAGGRAFYASWAKSRSTITRNTNENTVTLKMNSLRAEDTAVYYCAKLGTGSRFAIWGQGTLVTVSS
VL: DIQMTQSPSSLSASVGDRVTITCRASQSVWRNKNVAWYQQKPGKAPKRLIYAIASLYSGVPSRFSGSGSGTDFTLTISSLQPEDFATYYCVGHYGSENDAYYAFGQGTKVEIK
Kd [5]: 0.421 nM
koff [5]: 0.000103 s⁻¹
kon [5]: 245000 M⁻¹ s⁻¹
Kd [6]: 17.5 nM
koff [6]: 0.0042 s⁻¹
kon [6]: 240000 M⁻¹ s⁻¹

B10: hSC44.20.N32F^L Fab (Fab, V domains shown)
VH: EVQLVESGGGLVQPGGSLRLSCTASGFSIDSYGFSWVRQAPGKGLEHIGYLTAGGRAFYASWAKSRSTITRNTNENTVTLKMNSLRAEDTAVYYCAKLGTGSRFAIWGQGTLVTVSS
VL: DIQMTQSPSSLSASVGDRVTITCRASQSVWRNKFVAWYQQKPGKAPKRLIYAIASLYSGVPSRFSGSGSGTDFTLTISSLQPEDFATYYCVGHYGSENDAYYAFGQGTKVEIK
Kd [5]: 0.892 nM
koff [5]: 0.000177 s⁻¹
kon [5]: 199000 M⁻¹ s⁻¹
Kd [6]: 6.63 nM
koff [6]: 0.000697 s⁻¹
kon [6]: 105000 M⁻¹ s⁻¹

B11: hSC44.20.N32Y^L Fab (Fab, V domains shown)
VH: EVQLVESGGGLVQPGGSLRLSCTASGFSIDSYGFSWVRQAPGKGLEHIGYLTAGGRAFYASWAKSRSTITRNTNENTVTLKMNSLRAEDTAVYYCAKLGTGSRFAIWGQGTLVTVSS
VL: DIQMTQSPSSLSASVGDRVTITCRASQSVWRNKYVAWYQQKPGKAPKRLIYAIASLYSGVPSRFSGSGSGTDFTLTISSLQPEDFATYYCVGHYGSENDAYYAFGQGTKVEIK
Kd [5]: 0.83 nM
koff [5]: 0.000186 s⁻¹
kon [5]: 224000 M⁻¹ s⁻¹
Kd [6]: 5.11 nM
koff [6]: 0.00066 s⁻¹
kon [6]: 129000 M⁻¹ s⁻¹

B12: rSC44 Fab (Fab, V domains shown)
VH: QSVKESGRGLVQPGGSLTLTCTASGFSIDSYGFSWVRQAPGKGLEHIGYLTAGGRAFYASWAKSRSTITRNTNENTVTLKMTSLTAADTATYFCAKLGSGNPVAIWGPGTLVTVSS
VL: QVLTQTPSFTSAAVGGTVTINCQSSQSVWRNKNLAWYQQKPGQPPKRLIYAIATLDSGVPSRFSGSGSGTQFTLTISDVQCDDAATYYCVGHYGSENDAYYAFGGGTEVVVK
Kd [5]: 0.668 nM
koff [5]: 0.000135 s⁻¹
kon [5]: 203000 M⁻¹ s⁻¹
Kd [6]: 48.5 nM
koff [6]: 0.00591 s⁻¹
kon [6]: 122000 M⁻¹ s⁻¹

B13: hSC44.20.N32F^L IgG (antibody, V domains shown)
VH: EVQLVESGGGLVQPGGSLRLSCTASGFSIDSYGFSWVRQAPGKGLEHIGYLTAGGRAFYASWAKSRSTITRNTNENTVTLKMNSLRAEDTAVYYCAKLGTGSRFAIWGQGTLVTVSS
VL: DIQLTQSPSSLSASVGDRVTITCRASQSVWRNKFVAWYQQKPGKAPKRLIYAIASLYSGVPSRFSGSGSGTDFTLTISSLQPEDFATYYCVGHYGSENDAYYAFGQGTKVEIK
notes: human IgG1, kappa light chain
Kd [7]: 1.54 nM
koff [7]: 5.73e-05 s⁻¹
kon [7]: 37300 M⁻¹ s⁻¹
Kd [8]: 1.68 nM
koff [8]: 1.64e-05 s⁻¹
kon [8]: 13900 M⁻¹ s⁻¹

B14: hSC44.20.N32Y^L IgG (antibody, V domains shown)
VH: EVQLVESGGGLVQPGGSLRLSCTASGFSIDSYGFSWVRQAPGKGLEHIGYLTAGGRAFYASWAKSRSTITRNTNENTVTLKMNSLRAEDTAVYYCAKLGTGSRFAIWGQGTLVTVSS
VL: DIQLTQSPSSLSASVGDRVTITCRASQSVWRNKYVAWYQQKPGKAPKRLIYAIASLYSGVPSRFSGSGSGTDFTLTISSLQPEDFATYYCVGHYGSENDAYYAFGQGTKVEIK
notes: human IgG1, kappa light chain
koff [7]: < 1e-07 s⁻¹
kon [7]: 35100 M⁻¹ s⁻¹
koff [8]: 2.61e-05 s⁻¹
kon [8]: 8880 M⁻¹ s⁻¹

B15: rSC44 IgG (antibody, V domains shown)
VH: QSVKESGRGLVQPGGSLTLTCTASGFSIDSYGFSWVRQAPGKGLEHIGYLTAGGRAFYASWAKSRSTITRNTNENTVTLKMTSLTAADTATYFCAKLGSGNPVAIWGPGTLVTVSS
VL: QVLTQTPSFTSAAVGGTVTINCQSSQSVWRNKNLAWYQQKPGQPPKRLIYAIATLDSGVPSRFSGSGSGTQFTLTISDVQCDDAATYYCVGHYGSENDAYYAFGGGTEVVVK
notes: rabbit SC44-8 IgG heavy chain; rabbit IgG constant region; as the light chain of m9; Rabbit IgG; also called SC44-8; rSC44-8; copies: 2 + 2
binding result [3]: binds
binding result [4]: binds
